Results as given in the DeepSol protein solubility set.

Test: soluble on expression in E. coli; label from the status in PepcDB or PDB records

Row | Sequence | soluble on expression in E. coli
1 | MKIIDEHTFEGKGYHPFLITDRWQVAYLNYAEAESLEQIEKLDIHHQTDEVFILLQGKAALIGASVTDQNITYDVVNMQPGIVYNIRREVWHKIAMQPGSQVLIIENNDTHLNDFEFFELTESQKSQLRECVTKIVSLTEN | not soluble
2 | MKQITGVYTAPRPHWVGDGFPVRSLFSYQSHAQQLSPFLLLDYAGPHTFTPGNEKRGVGEHPHRGFETVTIVYSGEVEHRDSTGRGGVIGPGDVQWMTAGAGILHEEFHSDAFTRRGGELEMVQLWVNLPMKDKMTTPGYQSITHDVIPTVTLPDNAGVVRVIAGRYEETKGPAHTFSPLNVWDMRLQRNRQLTLAQPEGWSTALVVLKGNITVNGTTPVNEAQLVVLSQQGKTLHLEASSDASVLLLSGEPLNEPIVGYGPFVMNTKQEIAEAVRDFNSGRFGQI | not soluble
3 | MSLDNFLTTGFLDIIPLSQPLEFRREGLQHGVLDKLRSGKYPQQASLNLLRQPVEECRKMMFSFIQQAMADGLRNVLIIHGKGREDKSHANIVRSYVARWLTEFDDVQAYCTALPHHGGSGACYVALRKTAQAKQENWERHAKRSREGHHHHHH | not soluble
4 | MAHHHHHHMAEAKVVKDLAEVCASGAETYSAWTTAKALVQRRYLSAKAQGTFEDCGKLLASLTRVLQTYLRIDLAQELLSDVLFQVMEHFSAKQAAGATAAVVKDGGAPQSSFDLAAANFLQHMFDTLLSATTRTYTLMGPMPLVVEWNRDADSGGVEAAVAQSKHAAPWAEAVVLEFAVRAADFLSQRPQSADVLSHWAQNLFVSYEQLLALRLALPSSPPSTPQDGKAASAAAPSPSVPVPTLASQLLRMSTFNRASRTGKESSDSTSAATTPLTAAVYWLTHFAREPNAVNHLFAQYVYFDILGRGQQRSSTANTTPGNSGAPAKMLRERVNAALEERCTLTRREAISMARAAVEAYWQAFPLVLQQTSSVSSPQPSSCAGESSKEDANVDPQDVHLYRWTWFLDSLTLTFAYSGSASASIDEDAAVQQRERQKHVCAQLLELYADVTAELPGLKWQELVAAYIGA | soluble
5 | MSLTQPFQLPHFYMPYPARLNPHLDEARAHSTRWARGMGMLEGSGIWEQSDLDAHDYGLLCAYTHPDCDGPALSLITDWYVWVFFFDDHFLETFKRTQDREGGKAYLDRLPLFMPLDLSAPVPEPENPVEAGLADLWARTVPAMSADWRKRFAVSTEHLLNESLWELSNINEGRIANPVEYIEMRRKVGGAPWSAGLVEYATAEVPAAVAGSRPLRVLMETFSDGVHLRNDLFSYQREVEEEGELSNGVLVLETFFGCTTQEAAETVNDILTSRLHQFEHTALTEVPALALEKGLTPPEVAAVAAYARGLQDWQSGGHEWHLRSSRYMNEEGHHHHHH | soluble
6 | MSRNPFDDDYRPSAASSTMPVKSYTTMGHYSGEDEADYYEREIEKTLQESLDSTERSRRHLENSEKIGTSTAQQLLEQREKLENTEKNLDEIHRTTQMTQRNLNSLKSFFGGMFKNKFTKKPQEPTETPTVPQSKSASRLSETATNLSSGGGSATFSGPSGQRTLTESSRSAIKGTRWEAMDNQIDENLDMMSANLRNLQRLGADLGKEVDSQNEMLDRIQYKAERNDGIVRDQDKQMQKILGTGASTSQTTAESLTPSMDTSTKMSLMMKATSLWK | not soluble
7 | MHKYRLVAKKGEGTFSEVLKAQCIKNGKYVAIKCMKNHFDSLDQVNNLREIQALRRLSPHANIIKLLEVLYDQPTGRLALVFELMDMNIYELIRGRRHYVAEERIKNYMYQLMKSMDHMHRNGIFHRDIKPENILIMDDCLKLADFGSCRGIYSKQPYTEYISTRWYRAPECLLTDGYYNYKMDMWGVGCVFFEIVSLFPLFPGTNELDQITKIHNILGTPPPDLLAKMKKRSAHMDFNFPPKEGSGVAKLIPHVNPECVDLIVKLLMYNPDERLSARQALRHPYFRDLREAEKRQKALLAPDVSNHFTAMEADKARQQQTVSSTGSDHEHPTSAGGDGGAGTGAVGTHDGSAAAAAAAAALPSISGARGHAGPEGGHDNDMG | not soluble
8 | GSDLPIDPNEPTYCLCNQVSYGEMIGCDNDECPIEWFHFSCVGLNHKPKGKWYCPKCRGENE | soluble
9 | MPTITTKTPVKGLIFNIQKFSINDGPGIRTVVFFKGCPLRCKWCSNPESQSGEQESMYDEQTAKQTIVGDYMTVDDIMKVILQDKDFYEESGGGVTFSGGEVLFQASFAIELAKAVKAAGINLACETTGYARPKVFNEFMSYMDFMYYDCKQWDPAQHRIGTGADNGVILRNLATAVQAHQKMMVRIPVIPGFNYTLNDADHFGQLFNQIGVTEVELLPFHQFGLKKYQDLGRKYALVNVKQLQADDLIDYAEHIRAHGVKVRVNGW | not soluble
10 | MSVTMSEAFDYSMIDNILSEHGTSETAIIAILQSIQEEYHYIPKEVFPYLSKKLKVSEARIFSVATFYENFSLEPKGKYIIKVCDGTACHVRKSIPIIERLRKELGLSGTKPTTDDLMFTVETVSCLGACGLAPVITVNDKVYAEMTPDKASELIKQLREGDADA | not soluble
11 | MAGGFGVGKTTFVGAVSEIAPLSTEELLTTVGAATDNLDGIENKVETTVAMDFGRITLDPEHVLYLFGTPGQQRFWFMWDELSEGALGAVILADTRRLEDCFAAVDFFEQRGLAFIVAINDFDGGYRYDPAEVRAAIDLDPHIPVVRCDARISSSGVQTLLTLVRHLLAHAPATAPSHGAHTLEHHHHHH | not soluble
12 | MGLLVLGTPLDWPESKKYCDYVRENGIMQFLHMYDTYISKKQDVLLWGDEIECIVVSMDDKSKKARVSLRQEDILNALGKYEETFRHVDFGPVYAALRNETCPKKIDAILSEVAKNPADYVERIGGNSNKDTIEITSSTKPHAQNAVPTFHPEYGRYMLESTPGAPYGSTLKDFTFVEYNMRLRRKIIENHLLPNELPLTITNFFRLGTPGFTDPEVEANGAISRSFFLPDDVINTHVRFPTLTANIRQRRGRKVAMNVPIFFDKNTIKPFHDPTVPWDRNLFPEDANARDGAALDNHIYMDSMGFGMGCCCLQITFQAKSCDEARLLYDQLTPITPLMLALSAGTPAFRGYLADQDCRWNVIAGAVDDRTEEEMKTVPKSRYDSVDLYISNDKRNLPEYNDVPVVINQDCYDKLIKDCIDERLAKHMAHIFSRDPLVIFSDSILQDNSVSNAHFENLNSTNWQSMRFKPPPPGSDIGWRVEFRSMEIQITDFENAAYSIFVVMLSRAILSFNLNLYMPISLVDENMKAAHARDAIHRKKFWFRCNPFPDASTDDESGQFRQLTIDELFNGEHRENGFPGLITIVRSYLYSCNPDAKTICLIERYIRLISQRANGQCLTAASWIRNFITTHPSYKQDSVVNDEINYDLIRRIAKIVDGDYDDTLLGKCS | soluble
13 | MTEIQKPYDLKGRSLLKESDFTKAEFEGLIDFAITLKEYKKNGIKHHYLSGKNIALLFEKNSTRTRAAFTVASIDLGAHPEFLGKNDIQLGKKESVEDTAKVLGRMFDGIEFRGFSQQAVEDLAKFSGVPVWNGLTDDWHPTQMLADFMTIKENFGYLEGINLTYVGDGRNNIAHSLMVAGAMLGVNVRICTPKSLNPKEAYVDIAKEKASQYGGSVMITDNIAEAVENTDAIYTDVWVSMGEESEFEQRINLLKDYQVNQQMFDLTGKDSTIFLHCLPAFHDTNTLYGQEIYEKYGLAEMEVTDQIFRSEHSKVFDQAENRMHTIKAVMAATLGS | not soluble
14 | ALLITKKCINCDMCEPECPNEAISMGDHIYEINSDKCTECVGHYETPTCQKVCPIPNTIVKDPAHVETEEQLWDKFVLMHHADKI | soluble
15 | SLLNVPAGKDLPEDIYVVIEIPANADPIKYEIDKESGALFVDRFMSTAMFYPCNYGYINHTLSLDGDPVDVLVPTPYPLQPGSVTRCRPVGVLKMTDEAGEDAKLVAVPHSKLSKEYDHIKDVNDLPELLKAQIAHFFEHYKDLEKGKWVKVEGWENAEAAKAEIVASFERAKNK | soluble
16 | MSVPPGSIIVSDWHRCPDSREFFSKILHKKRRRKFGKTGVGKSALAARLAGLDLPKMHYETTGIETTVVFWPVRLKESGRVLFFRFELWDCGESAMRRFDHMLLSCKEKVDAILFLFSFTDRGSFDDLTNQISRITEPSDRVVKLVVGTKRDGERRDTFSGGVGSSGFPCGR | not soluble
17 | MMSPRIGLTLQKIVETAAEIADANGVQEVTLASLAQTLGVRSPSLYNHVKGLQDVRKNLGIYGIKKLHNRLEEAAEDKRMDEAIHALGEAYVAFVRKHPGLYEATFLRDEEVRKAGDGIVKLCLQVLQQYGLEGENALHATRGFRSICHGFASIEQQGGFGLPLDLDISLHVLLETFIKGLRE | soluble
18 | GMEYQLQQLASLTLVGIKETYENGRQAQQHIAGFWQRCYQEGVIADLQLKNNGDLAGILGLCIPELDGKMSYMIAVTGDNSADIAKYDVITLASSKYMVFEAQGAVPKAVQQKMEEVHHYIHQYQANTVKSAPFFELYQDGDTTSEKYITEIWMPVKG | soluble
19 | GPGSMTDLRGVLPSKVISTPSGFVECSTHNVRRKAECCEMKAVLNADMEVIDYICVCKHPFTCKSASERQSNGLAAASNARRNAPDGERSGTAPLVIDASSTSMTAQSQHHHHGGQPSAAGAADKEAGVSTLFAVSFYDASRSTPGPSASATAAAVSPKPSAKDGEDREDEKGKDTRANAMRISDSDSDTDDGDSLDNSPSFTAGATPATAATAASFPAAPRERSRYYDSLQNASTGGHAPPAKVCWGCGMTGHEKPACPNALCRTCHQKRGPYGSPHRCTPVVTPSPLIVYPTPSEWRAATQKTAAAAGEPNGMAAVRCVACNEYGHFDCSTVVLPSSYALVASSSPGPAAVPHTLVPTCCFCGVRGHTVFDCQQREHVNPDYFERRNQLFADSVRRGSGITAAGAPFSNSGSSSGYGHPSQQQRQQRFYGSPTGGAPLSSSSFTRYGNGRGGGGSGQRRERDWCDNREQRVGGSQYSNSRREGSAYNNDSYGGDRDHQRRRYESPSFSRAGGGPAPSSSLLMHGRDRCQEGGQRHHEERSRDSYGGSHQRYSEGEHGGAGSRGHGQRSHYSQQSQHSHRHGSSRRGGRLGDSGYYSDDNLF | not soluble
20 | MGSDKIHHHHHHMNKKFLLTGASGFVGKHLYSINPSQFRCVVREDGERFPDAYKVNGINSKTDWTDSFLDIDCIIHLAGLAHSNNNRNDEYRETNFLGTLCLAQQASKSGVKRFVFVSSIGVNGNATLEKPFSIFDEPKPLNSYTNSKYDAEIGLKKIAAETGLEVVIVRPTLVYGPNAPGNFGLLTKLVKKLPVLPFGLANNKRDFIAVQNLADLLITCATHPNAAGHMFLASDMETVSIKQFTNAIADGLGKKVFQFPIPVSLMRLTGKLMRKSAMVEQLLGNLQVDSSNIKEVLDWTPPLTMKQAMTTLCDSGKSS | not soluble
21 | MSLRMQDIERKVIEWLDQHSAKAIRLLKRLIGEKSTLGSEFNAQAVVLEKLRQFHMDIDVWEPSIKQLKQHPYFKSNRSDFHESPNIVAKKTGAGGGRSLILNGHIDVVPEGSVKDWKYEPYQAVEENGKIYGRGSTDMKGGNTALLFALEALHACDVKLKGDVLFQSVVDEECGGAGTLSAIMRGYRADGALIPEPTNMKLFIKQQGSMWFRITVKGLSAHGGTRYEGVSAIEKSMHVITAIQELEKVRNARISDPLYDNIPIPVPVNIGTISGGAWPSSVADRVVIEGRCGIAPHEKPEAVKLELENWLKDLEYHDEWFKRHPVQVEWFGAQWLPNDLPDDHPLISVLQSAYQKMKQTEPIIEASPWGTDGGLLYHAGDTPVIVFGPGETKTAHQANEYIEVEAMIESAKIIALFVMDWCGLHTDGEGHHHHHH | soluble
22 | MGSDKIHHHHHHMHARSLDKKPLDRQASIDSALRTVATEQAGIAALAEALENGLAAPFAQAVDMISKIEGRLIVTGVGKSGHIGSKIAATLASTGTPAFFVHPVEANHGDLGMIAKDDAIIAISWSGESKEMLGIVAYSRRFSIPLIAVTSGETSALARAADVVLLLPRTPEACPHGLAPTTSTLLQLVIGDALAIALLEARGFTPDHFRTFHPGGQLGANLTMVSEIMRVGDQMPLAVLGTKMPEAVMTLSQKKVGCVLIVDANGELAGIITDGDVARNLHRNLADVIVDEVMTRTPKTVDPQTLAGTAIALLNEHNIGALVVTRNNMPLGVVHFHDLLRIGAA | not soluble
